# Legend:
# [1] = molecular target: T1, cyno LTBR His (R&D), recombinant protein (cynomolgus (Macaca fascicularis), UniProt P36941 31-227 (human entry), limits assumed); assay: SPR (Carterra LSA), antibody captured by anti-human Fc, LTBR as analyte
# T1 construct: bought protein used as analyte on Carterra LSA
# Description: (§1) The binding of anti-LTBR antibodies to human and cynomolgus LTBR was investigated by Surface Plasmon Resonance (SPR) on Carterra LSA. An EC30M chip was used to capture the test antibodies. Activation with EDC and sNHS occurred in MES pH 5.5 to prepare the chip for amine coupling. Goat anti-human IgG Fc antibody was then captured to the chip via incubation for 10 minutes. Excess conjugation sites were quenched with 1M Ethanolamine pH 8. To measure monovalent binding kinetics, antibodies were printed/spotted onto the chip and allowed to bind to the goat antibody, followed by subsequent washing. After the preparation, the printed chip was exposed to repeated rounds of association and dissociation with increasing analyte concentrations. In this work, recombinant proteins (Human LTBR (Acro) or cyno LTBR His (R&D)) were serially diluted across a range starting at 1500 nM with 3-fold dilutions and 10 points. The curves were fitted to global fit in a 1:1 binding model to obtain KD values. The binding affinity to both species is reported.
# [2] = molecular target: Human LTBR (Acro), recombinant protein (human, UniProt P36941 31-227, limits assumed); assay: as above
# Description: as §1
# [3] = molecular target: T2, human LTBR endogenously expressed on cells (HepG2, A549, A375, HCC1187, RPMI-7951, primary human breast CAFs) (human, UniProt P36941 31-435); assay: cell-based or functional assay
# [4] = molecular target: T2, human LTBR endogenously expressed on …; assay: cell-based or functional assay; remark: listed apart in the source
# [5] = molecular target: T2, human LTBR endogenously expressed on …; assay: cell-based or functional assay; remark: listed apart in the source
# [6] = molecular target: mouse LTBR on cells (4T1 tumor cell line; primary mouse lung fibroblasts) (mouse, UniProt P50284 31-415); assay: cell-based or functional assay
# mouse LTBR on cells (4T1 tumor cell line; primary mouse lung fibroblasts), sequence (P50284 31-415): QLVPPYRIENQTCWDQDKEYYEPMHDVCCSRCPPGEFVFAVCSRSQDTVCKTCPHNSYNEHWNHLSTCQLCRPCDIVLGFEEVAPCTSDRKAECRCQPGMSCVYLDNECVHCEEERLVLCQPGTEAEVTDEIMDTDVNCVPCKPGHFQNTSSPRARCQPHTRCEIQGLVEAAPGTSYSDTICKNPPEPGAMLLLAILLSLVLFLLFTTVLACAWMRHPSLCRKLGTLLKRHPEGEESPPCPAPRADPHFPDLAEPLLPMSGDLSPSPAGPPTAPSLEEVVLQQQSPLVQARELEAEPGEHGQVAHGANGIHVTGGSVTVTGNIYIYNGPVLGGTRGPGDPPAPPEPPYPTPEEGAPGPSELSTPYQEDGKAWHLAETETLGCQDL
# T2 sequence (P36941 31-435): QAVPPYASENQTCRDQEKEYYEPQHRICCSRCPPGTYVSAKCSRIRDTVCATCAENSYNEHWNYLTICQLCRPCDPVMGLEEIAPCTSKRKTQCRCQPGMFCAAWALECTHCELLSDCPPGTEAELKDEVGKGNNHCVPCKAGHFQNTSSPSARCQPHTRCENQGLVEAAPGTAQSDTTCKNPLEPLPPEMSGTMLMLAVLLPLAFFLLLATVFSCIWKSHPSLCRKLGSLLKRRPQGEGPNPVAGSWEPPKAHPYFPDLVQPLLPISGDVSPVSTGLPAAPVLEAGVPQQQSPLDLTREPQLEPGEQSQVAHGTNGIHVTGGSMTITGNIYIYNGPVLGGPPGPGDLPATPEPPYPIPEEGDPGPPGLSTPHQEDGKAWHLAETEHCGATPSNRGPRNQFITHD
# Human LTBR (Acro), recombinant protein, sequence (P36941 31-227 limits assumed): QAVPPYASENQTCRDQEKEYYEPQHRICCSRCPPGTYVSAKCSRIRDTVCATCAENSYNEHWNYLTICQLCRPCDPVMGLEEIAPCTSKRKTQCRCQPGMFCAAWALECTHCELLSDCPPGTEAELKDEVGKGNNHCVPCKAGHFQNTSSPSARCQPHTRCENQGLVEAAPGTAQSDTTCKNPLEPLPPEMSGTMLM
# T1 sequence (P36941 other isoform, or with tags, fused parts or gaps limits assumed): as the sequence (P36941 31-227 limits assumed) above, with A2V, A7G, Q24R, I45S, N163D, K181R, L184S, P186S counted along it
binder,measurement,setting,value
"Clone 2.8 (antibody, V domains shown, anti-LTBR mAb (bivalent)) VH: QVQLQESGPGLVKPSGTLSLTCAVSGGSISSSNWWSWVRQPPGKGLEWIGDIYHDGTTYYNPSLKSRVTVSVDKSKNQFSLKLSSVTAADTAVYYCARSPSGTTDYFDYWGQGTLVTVSS VL: DIQMTQSPSSLSASVGDRVNITCRASQSISSYLNWYQQKPGKAPKLLIYAPSSLQSGVPSRFSGGGSGTDFTLTISSLQPEDFATYFCQQSYSTPPTFGPGTKVDIK",Kd,[1],2600 pM
same,Kd,[2],280 pM
"Clone 2.4 (antibody, V domains shown, anti-LTBR mAb (bivalent)) VH: QVQLVESGGGVVQPGRSLRLSCAASGFTFSSYGIHWVRQAPGKGLEWVAVIWYDGSNKYYADSVKGRFTISRDNSKNTLYLQMNSLRAEDTAVYYCARDGGTGNYYYMDVWGKGTTVTVSS VL: not shown",HepG2 reporter assay EC50 (with cross-linking antibody),[3],90 pM
same,Kd,[1],53000 pM
same,Kd,[2],36000 pM
"Clone 4.10 (bispecific antibody, human IgG1, kappa, L234A L235A) heavy 1: not shown heavy 2: EVQLVESGGGLVKPGGSLRLSCVASGFTFSLAWMNWVRQAPGKGLEWVGHIKSRADGGSTDYAAPVKGRFTISRDDSKNTLYLHMNSLKTEDTAVYFCSRFYWNYVLDYWGQGTLVTVSSASTKGPSVFPLAPSSKSTSGGTAALGCLVKDYFPEPVTVSWNSGALTSGVHTFPAVLQSSGLYSLSSVVTVPSSSLGTQTYICNVNHKPSNTKVDKKVEPKSCDKTHTCPPCPAPEAAGGPSVFLFPPKPKDTLMISRTPEVTCVVVDVSHEDPEVKFNWYVDGVEVHNAKTKPREEQYNSTYRVVSVLTVLHQDWLNGKEYKCKVSNKALPAPIEKTISKAKGQPREPQVCTLPPSRDELTKNQVSLSCAVKGFYPSDIAVEWESNGQPENNYKTTPPVLDSDGSFFLVSKLTVDKSRWQQGNVFSCSVMHEALHNHYTQKSLSLSPGK light: DIQMTQSPSSLSASVGDRVTITCRASQSINSYFNWYQQKPGKAPKLLIYAASGLQSGVPSRFSGSGSGTDFTLTISSLQPEDFATYYCQQSYSPPYTFGQGTNLEIKRTVAAPSVFIFPPSDEQLKSGTASVVCLLNNFYPREAKVQWKVDNALQSGNSQESVTEQDSKDSTYSLSSTLTLSKADYEKHKVYACEVTHQGLSSPVTKSFNRGEC","HepG2 Reporter assay, HepG2:FAP-CHO-K1 Co-culture EC50",[4],36 pM
same,"CCL19 upregulation, HCC1187:CAF Co-culture EC50",[5],410 pM
"Clone 4.15 (antibody, V domains shown) VH: QVQLKESGPGLVQPSQTLSLTCTVSGFSLTTYSVHWVRQHSGKSLEWMGRMWTDGDTSYNSAFTSRLSISRDTSKSQVFLKMNSLQTEDTGTYYCARGYWYFDFWGPGTMVTVSS VL: DVQMTQSPSYLAASPGESVSIRCKASKSISNNLAWYQEKPGKANKLLIHSGSTLQSGTPSRFSGSGSGTDFTLTIRSLEFEDFAVYYCQQYNEYPYTFGAGTKLELK",4T1 monoculture CCL5 read-out EC50,[6],840 pM
same,"4T1 monoculture CCL5 read-out EC50, 4.15 + cross-linking antibody",[6],36 pM

# Reference: patent US20260176336A1 (MESTAG THERAPEUTICS, published 2026)
